Results reported in patent US7053177B1, “Random peptides that bind to gastro-intestinal tract (GIT) transport receptors and related methods” (Cytogen Corporation, priority 1997, dated 2006).
Ends that are not written are not given here.

Columns and labels:
BSA = BSA (Bos taurus, UniProt P02769); experiment: Receptor ELISA of phage on BSA (background control protein); assay type: binding
Protocol: (§1) 96 well plates were coated overnight with GIT receptor, BSA and, optionally, IDE (insulin degrading enzyme, an irrelevant His-fusion protein)or hTF. The plates were blocked for one hour with 0.5% BSA-PBS. After clarification, the amplified phage were diluted 1:100 in 1% BSA plus 0.05% Tween 20 in PBS and added to the plates. Following incubation of the plates on a rotator for 1 to 2 hours, the plates were washed 5 times with 1% BSA plus 0.05% Tween 20 in PBS. Dilute anti-M13-HRP conjugate (anti-M13 antibody linked to horse radish peroxidase (HRP)) was added to all the wells and the plate was incubated for one hour on a rotator. After the plates were washed 5 times, as described above, TMB substrate was added to the wells. The plates were read at 650 nm absorbance.

[1] = tested on: rat gastro-intestinal tract (closed loop); experiment: Transport of preselected phage libraries in rat closed loop, detected by oligonucleotide hybridization/autoradiography; conditions: in words; for Presence in the intestinal samples fractions / Transport from the GIT closed loop model into the portal circulation: D2H pool
Protocol: Four preselected phage libraries, GI-D2H, GI-hSI, GI-HPT1 and GI-hPEPT1, were constructed by pooling phage previously selected by screening random phage display libraries D38 and DC43 using the HPT1, HPEPT1, D2H and hSI receptor or binding sites located in the GIT.
In particular, phages selected in vitro to each receptor or binding site located in the GIT were amplified in E. coli, PEG-precipitated, resuspended in TBS and the titer of each phage sample was determined by plaquing in E. coli as described above. […] Using the in situ loop model described above, 0.5 ml of preselected phage library solution was injected into the tied-off portion of the duodenum/jejunum. Blood was collected into heparinized tubes from the portal vein at 0, 15, 30, 45 and 60 minutes. A blood sample was taken from the systemic circulation at the end of the experiment. Similarly, the portion of the duodenum/jejunum used for phage injection was taken at the end of the experiment.
Thirty microliters of the collected portal blood (neat and 10^−2, 10^−1, 10^−6 dilutions) was added to 30 μl E. coli K91Kan cells (overnight culture) and incubated at 37° C. for 10 min. Subsequently, 3 ml of top agarose was added and the samples were plated for plaques. One hundred microliters of the collected portal blood was added to 100 μl of E. coli K91Kan. Five milliliters of LB medium was then added and the samples were incubated at 37° C. overnight in a rotating microbial incubator. The E. coli was removed by centrifugation and the amplified phage supernatant samples were either titered directly or were PEG-precipitated, resuspended in TBS and titered. Following titration of the amplified phage, samples containing phage from each set of animals were combined, adjusting the titer of each sample to the same titer, and were plated for plaques on LB agar lates (22 cm^2 square plates). Either 12,000 or 24,000 phage were lated for plaques.
Thirty microliters of the collected systemic blood (neat and 10^−2, 10^−1, 10^−6 dilutions) was added to E. coli K91Kan cells, incubated at 37° C. for 10 min. Three ml of top agarose was then added and the samples were plated for plaques. One hundred microliters of the collected systemic blood was added to 100 μl of E. coli K91Kan, incubated at 37° C. for 10 min. Five milliliters of LB medium was then added and the samples were incubated at 37° C. overnight in a rotating microbial incubator. The E. coli was removed by centrifugation and the amplified phage supernatant samples were either titered directly or were PEG-precipitated, resuspended in TBS and titered. Following titration of the amplified phage, samples containing phage from each set of animals were combined, adjusting the titer of each sample to the same titer, and were plated for plaques on LB agar plates (22 cm^2 square plates). Either 12,000 or 24,000 phage were plated for plaques.
The intestinal tissue portion used in each closed loop was excised. […] Alternatively, the tissue (in PBS supplemented with protease inhibitors) was homogenized in an Ultra Thorex homogenizer, washed 3 times in PBS containing protease inhibitors and resuspended in PBS containing protease inhibitors (Int-G samples). In each case, serial dilutions (neat and 10^−2, 10^−4, 10^−6 dilutions) of the tissue homogenate was titered in E. coli.
The phage amplified from the portal blood, systemic blood and intestinal tissue was plated for plaques. […] The filters were air-dried, and the DNA was cross-linked to the filter (UV crosslinking: 2 min, high setting). The filters were incubated in pre-hybridization buffer (6×SSC, 5× Denhardt's solution, 0.1% SDS, […] yeast tRNA) at 40° C.–45° C. for at least 60 min.
Synthetic oligonucleotides, (22-mers), complimentary to regions coding for the receptor or binding sites used to create the preselected phage library, were synthesized (see Table 14 below).

[2] = biological target: bovine serum albumin (bovine) (UniProt P02769); experiment: phage ELISA on coated BSA
[3] = biological target: T1, recombinant hPEPT1 receptor domain (human PEPT1, amino acid residues 391-571), His-tag fusion protein (human, UniProt P46059 391-571); experiment: phage ELISA, OD on hPEPT1 over OD on BSA
T1 construct: purified under denaturing conditions; coated on plates
T1 sequence: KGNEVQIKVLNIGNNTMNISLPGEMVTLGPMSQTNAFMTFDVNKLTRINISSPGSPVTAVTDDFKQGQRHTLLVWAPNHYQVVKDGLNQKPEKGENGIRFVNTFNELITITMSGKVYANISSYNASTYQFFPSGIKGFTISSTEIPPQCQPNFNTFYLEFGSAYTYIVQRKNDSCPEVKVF
Protocol: as §1, with “6.6. Receptor ELISA Procedure 96” for “96”, “Dilute anti-M13-HRP conjugate (anti-M13 antibody linked to horse radish peroxidase (HRP)) was added to all the wells and the plate was incubated for one hour on a rotator.” left out

[4] = biological target: T1, recombinant hPEPT1 receptor domain …; experiment: phage ELISA on coated hPEPT1
Protocol: as §1, with “6.6. Receptor ELISA Procedure 96” for “96”, “Dilute anti-M13-HRP conjugate (anti-M13 antibody linked to horse radish peroxidase (HRP)) was added to all the wells and the plate was incubated for one hour on a rotator.” left out

[5] = biological target: T2, recombinant hPEPT1 receptor domain (human PEPT1, amino acid residues 391-571), His-tag fusion protein (human) (UniProt P46059); experiment: phage ELISA, OD on hPEPT1 over OD on BSA
T2 sequence: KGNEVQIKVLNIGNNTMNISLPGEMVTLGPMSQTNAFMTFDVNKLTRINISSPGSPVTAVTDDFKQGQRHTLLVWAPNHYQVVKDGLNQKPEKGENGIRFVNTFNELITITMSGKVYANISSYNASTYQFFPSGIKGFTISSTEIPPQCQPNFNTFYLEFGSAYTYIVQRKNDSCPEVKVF

[6] = biological target: T2, recombinant hPEPT1 receptor domain (human PEPT1, amino acid residues 391-571), His-tag fusion protein (human); experiment: phage ELISA on coated hPEPT1
[7] = Table 3, two pans on D2H, third on Caco-2 snapwells
[8] = Table 1, phage panned on hSI, 650 nm

Sequence of bovine serum albumin (bovine) (P02769 25-607 limits assumed): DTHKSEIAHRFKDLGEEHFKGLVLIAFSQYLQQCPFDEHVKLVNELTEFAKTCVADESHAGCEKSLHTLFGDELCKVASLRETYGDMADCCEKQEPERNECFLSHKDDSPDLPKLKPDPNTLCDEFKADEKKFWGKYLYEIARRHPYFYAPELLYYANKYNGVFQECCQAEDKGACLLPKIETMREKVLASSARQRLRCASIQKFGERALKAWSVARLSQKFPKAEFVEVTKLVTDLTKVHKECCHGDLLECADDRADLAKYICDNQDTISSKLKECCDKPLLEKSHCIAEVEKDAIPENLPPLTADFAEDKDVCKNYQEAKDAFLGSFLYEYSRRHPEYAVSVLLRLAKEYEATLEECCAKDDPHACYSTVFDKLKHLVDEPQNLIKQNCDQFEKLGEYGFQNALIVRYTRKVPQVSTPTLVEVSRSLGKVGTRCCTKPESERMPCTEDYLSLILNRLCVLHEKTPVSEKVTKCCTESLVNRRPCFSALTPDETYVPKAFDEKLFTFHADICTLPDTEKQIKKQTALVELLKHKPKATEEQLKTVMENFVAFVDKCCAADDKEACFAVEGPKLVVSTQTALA
Sequence of BSA (P02769 25-607): as the sequence (P02769 25-607 limits assumed) above

Molecule	OD [2] [OD 650 nm]	PEPT1/BSA [3] [ratio]	OD [4] [OD 650 nm]	PEPT1/BSA [5]	OD [6] [OD 650 nm]	also measured
SQGSKQCMQYRTGRLTVGSEYGCGMNPARHATPAYPARLLPRYR [DCX11]	–	–	–	–	–	BSA (BSA; [7]): 0.071 OD; Presence in the intestinal samples fractions [1]: found; Transport from the GIT closed loop model into the portal circulation [1]: preferably transported
STPPSREAYSRPYSVDSDSDTNAKHSSHNRRLRTRSRPN (not fully specified) [PAX2]	–	–	–	–	–	Presence in the portal or systemic circulation ([1]; HPT1 pool, PAX2 used at 4x concentration): found in the portal and systemic circulation; Binding to / presence in the intestine samples ([1]; hPEPT1 pool): not found; Presence in the portal circulation ([1]; hPEPT1 pool): found
RVGQCTDSDVRRPWARSCAHQGCGAGTRNSHGCITRPLRQASAH [SNi10]	–	–	–	–	–	BSA (BSA; [8]): 0.051 OD
RYKHDIGCDAGVDKKSSSVRGGCGAHSSPPRAGRGPRGTMVSRL [DCX8]	–	–	–	–	–	BSA (BSA; [7]): 0.063 OD; Presence in the intestinal samples fractions [1]: to a much lesser extent; Transport from the GIT closed loop model into the portal circulation [1]: transported
SPCGGSWGRFMQGGLFGGRTDGCGAHRNRTSASLEPPSSDY [SNi34]	–	–	–	–	–	BSA (BSA; [8]): 0.115 OD
RASTQGGRGVAPEFGASVLGRGCGSATYYTNSTSCKDAMGHNYS (cysteine pairing not given here; also: displayed as N-terminal pIII fusion on M13 phage, M13 phage displaying this insert as N-terminal pIII fusion; whole phage in the ELISA; not shown: M13 phage particle / pIII display carrier (and vector flanks)) [phage PAX40]	0.076	6	0.461	–	–	–
SYCRVKGGGEGGHTDSNLARSGCGKVARTSRLQHINPRATPPSR (peptide, not shown: large carriers) [phage PAX15]	0.079	–	–	4	0.301	–
RWCEKHKFTAARCSAGAGFERDASRPPQPAHRDNTNRNA (peptide, not shown: large carriers, cysteine pairing not given here; also: displayed as N-terminal pIII fusion on M13 phage) [phage PAX43]	0.069	–	–	5	0.345	–
SARDSGPAEDGSRAVRLNGVENANTRKSSRSNPRGRRHP (also: displayed as N-terminal pIII fusion on M13 phage, M13 phage displaying this insert as N-terminal pIII fusion; whole phage in the ELISA; not shown: M13 pIII coat protein and phage particle (display carrier)) [phage P31]	0.075	11	0.807	–	–	–
RSITDGGINEVDLSSVSNVLENANSHRAYRKHRPTLKRP (also: displayed as N-terminal pIII fusion on M13 phage, M13 phage displaying this insert as N-terminal pIII fusion; whole phage in the ELISA; not shown: M13 phage particle / pIII display carrier (and vector flanks)) [phage PAX35]	0.065	7	0.474	–	–	–
RGSTGTAGGERSGVLNLHTRDNASGSGFKPWYPSNRGHK (peptide, not shown: large carriers, also: displayed as N-terminal pIII fusion on M13 phage) [phage 5PAX5]	0.036	–	–	4	0.15	–
SFQVYPDHGLERHALDGTGPLYAMPGRWIRARPQNRDRQ (also: displayed as N-terminal pIII fusion on M13 phage, M13 phage displaying this insert as N-terminal pIII fusion; whole phage in the ELISA; not shown: M13 phage particle / pIII display carrier (and vector flanks)) [phage PAX45]	0.081	5	0.419	–	–	–
SSADAEKCAGSLLWWGRQNNSGCGSPTKKHLKHRNRSQTSSSSH (cysteine pairing not given here; also: displayed as N-terminal pIII fusion on M13 phage, M13 phage displaying this insert as N-terminal pIII fusion; whole phage in the ELISA; not shown: M13 pIII coat protein and phage particle (display carrier)) [phage P90]	0.107	9	1.12	–	–	–
RWPSVGYKGNGSDTIDVHSNDASTKRSLIYNHRRPLFP (peptide, not shown: large carriers) [phage PAX9]	0.079	–	–	4	0.312	–
SQVDSFRNSFRWYEPSRALCHGCGKRDTSTTRIHNSPSDSYPTR (cysteine pairing not given here; also: displayed as N-terminal pIII fusion on M13 phage, M13 phage displaying this insert as N-terminal pIII fusion; whole phage in the ELISA; not shown: M13 phage particle / pIII display carrier (and vector flanks)) [phage PAX17]	0.095	5	0.514	–	–	–
SFLRFQSPRFEDYSRTISRLRNATNPSNVSDAHNNRALA (also: displayed as N-terminal pIII fusion on M13 phage, M13 phage displaying this insert as N-terminal pIII fusion; whole phage in the ELISA; not shown: M13 phage particle / pIII display carrier (and vector flanks)) [phage PAX18]	0.087	5	0.416	–	–	–
RPKNVADAYSSQDGAAAEETSHASNAARKSPKHKPLRRP (peptide, not shown: large carriers, also: displayed as N-terminal pIII fusion on M13 phage) [phage 5PAX3]	0.04	–	–	4	0.173	–
SSKVSSPRDPTVPRKGGNVDYGCGHRSSARMPTSALSSITKCYT (peptide, not shown: large carriers, cysteine pairing not given here; also: displayed as N-terminal pIII fusion on M13 phage) [phage PAX38]	0.064	–	–	5	0.292	–
SRCTDNEQCPDTGTRSRSVSNARYFSSRLLKTHAPHRP (cysteine pairing not given here; also: displayed as N-terminal pIII fusion on M13 phage, M13 phage displaying this insert as N-terminal pIII fusion; whole phage in the ELISA; not shown: M13 phage particle / pIII display carrier (and vector flanks)) [phage PAX46]	0.077	6	0.429	–	–	–
RWGWERSPSDYDSDMDLGARRYATRTHRAPPRVLKAPLP (peptide, not shown: large carriers, also: displayed as N-terminal pIII fusion on M13 phage) [phage 5PAX7]	0.037	–	–	5	0.171	–
